Data published in patent publication US6861399B2, “Cleaning compositions containing human serine protease T” (Ortho-McNeil Pharmaceutical , Inc., priority 1999, dated 2005).
Non-standard residues stand in square brackets, D forms with d. *: point of attachment. pNA = O=[N+]([O-])c1ccc(N*)cc1; HHT = not defined here

Target: T1, activated protease T-HA6×HIS (Homo sapiens, UniProt Q9BQR3, D40A/M35I/Q39Y/Q42E/T41L)
T1 construct: made in house; host or cells: Sf9 insect cells (baculovirus)
Experiment: Amidolytic activity of activated protease T on chromogenic pNA substrates
Assay type: biochemical
Details: substrate at 500 uM; 10 mM Tris-HCl pH 7.8, 25 mM NaCl, 25 mM imidazole; pNA release over 120 minutes at 37° C., 405 nm; N.A. = No Activity
Experimental: The conditioned medium from infected Sf9 cells was used to purify secreted recombinant PFEK-protease T-HA6×HIS zymogen. The medium was concentrated 5 to 10 fold using a Centriprep concentrator (Amicon Inc., Beverly, Mass.). 150 μl of a 50% Ni-NTA slurry (Qiagen, Valencia, Calif.) was added to 5 to 10 ml of the concentrated medium and mixed by shaking at 4° C. for 60 minutes. The zymogen-bound resin was washed 3 times with 1.5 ml of wash buffer (10 mM Tris-HCl (pH 8.0), 300 mM NaCl, and 15 mM imidazole), followed by with a 1.5 ml wash with ds H2O. Enterokinase cleavage was carried out by adding enterokinase (Novagen, Inc., Madison Wis.; or Sigma, St. Louis, Mo.) to the zymogen-bound Ni-NTA beads in a 150 ul volume at room temperature overnight with gentle shaking in a buffer containing 20 mM Tris-HCl (pH 7.4), 50 mM NaCl, and 2.0 mM CaCl2. The resin was then washed twice with 1.5 ml wash buffer. The activated protease T-HA6×HIS was eluted with elution buffer (20 mM Tris-HCl (pH 7.8), 250 mM NaCl, and 250 mM imidazole). Eluted protein concentration was determined by a Micro BCA Kit (Pierce, Rockford, Ill.) using bovine serum albumin as a standard. Amidolytic activities of the activated protease T-HA6×HIS was monitored by release of para-nitroaniline (pNA) from the synthetic substrates indicated in Table 1 and FIG. 6. […] Release of pNA was measured over 120 minutes at 37° C. on a micro-plate reader (Molecular Devices, Menlo Park, Calif.) with a 405 nm absorbance filter. The initial reaction rates (Vmax, mOD/min) were determined from plots of absorbance versus time using Softmax (Molecular Devices, Menlo Park, Calif.). […]
Amidolytic activities of the activated serine proteases are monitored by release of para-nitroaniline (pNA) from synthetic substrates that are commercially available (Bachem California Inc., Torrance, […].; American Diagnostica Inc., Greenwich, Conn.; Kabi Pharmacia Hepar Inc., Franklin, Ohio). […] Release of pNA is measured over 120 min at 37° C. on a micro-plate reader (Molecular Devices, Menlo Park, Calif.) with a 405 nm absorbance filter. […]

T1 sequence (Q9BQR3 35-290 M35I/Q39Y/D40A/T41L/Q42E limits assumed): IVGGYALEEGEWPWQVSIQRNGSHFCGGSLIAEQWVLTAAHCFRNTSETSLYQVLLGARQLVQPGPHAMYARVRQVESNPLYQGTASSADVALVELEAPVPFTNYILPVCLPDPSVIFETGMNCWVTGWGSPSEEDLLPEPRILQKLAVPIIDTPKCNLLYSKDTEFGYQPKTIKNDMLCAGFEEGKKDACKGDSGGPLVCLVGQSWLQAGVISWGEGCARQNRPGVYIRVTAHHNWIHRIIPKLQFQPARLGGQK

| Substance | Specific Activity |
| --- | --- |
| H-D-Lys(CBO)-Pro-Arg-pNA (H-[dK](CBO)-Pro-Arg-pNA) [commercially available chromogenic substrate] | 0.057 ± 0.022 nmole pNA produced/min/μg protein |
| H-D-Pro-HHT-Arg-pNA (H-[dP]-[HHT]-Arg-pNA; reading uncertain; also: printed as H-D-Pro-HHT-Arg-pNA) [commercially available chromogenic substrate] | 0.010 ± 0.000 nmole pNA produced/min/μg protein |
| H-DL-Val-Leu-Arg-pNA (H-Val-Leu-Arg-pNA; also: DL-Val (racemic) at 1) [commercially available chromogenic substrate] | 0.016 ± 0.003 nmole pNA produced/min/μg protein |
